Measured values from publication PMC5562730, “Three recombinantly expressed apple tyrosinases suggest the amino acids responsible for mono- versus diphenolase activity in plant polyphenol oxidases” (Scientific Reports, 2017).

What was measured:
purified protein [1] = substrate: NCCc1ccc(O)cc1; assay: purified protein; format: biochemical, Malus domestica; details: 50 mM Tris-HCl pH 7.0, 25 °C, 3 mM SDS as activator
purified protein [2] = substrate: NCCc1ccc(O)c(O)c1; assay: purified protein; format: biochemical, Malus domestica; details: 50 mM Tris-HCl pH 7.0, 25 °C, 3 mM SDS as activator

B1: MdPPO1 (Malus domestica) (protein)
chain: KPIAPPDVSKCGPADLPQGAVPTNCCPPPSTKIIDFKLPAPAKLRIRPPAHAVDQAYRDKYYKAMELMKALPDDDPRSFKQQAAVHCAYCDGAYDQVGFPELELQIHNSWLFFPFHRYYLYFFEKILGKLINDPTFALPFWNWDSPAGMPLPAIYADPKSPLYDKLRSANHQPPTLVDLDYNGTEDNVSKETTINANLKIMYRQMVSNSKNAKLFFGNPYRAGDEPDPGGGSIEGTPHAPVHLWTGDNTQPNFEDMGNFYSAGRDPIFFAHHSNVDRMWSIWKTLGGKRTDLTDSDWLDSGFLFYNENAELVRVKVRDCLETKNLGYVYQDVDIPWLSSKPTPRRAKVALSKVAKKLGVAHAAVASSSKVVAGTEFPISLGSKISTVVKRPKQKKRSKKAKEDEEEILVIEGIEFDRDVAVKFDVYVNDVDDLPSGPDKTEFAGSFVSVPHSHKHKKKMNTILRLGLTDLLEEIEAEDDDSVVVTLVPKFGAVKIGGIKIEFAS
notes: latent pro-enzyme without transit peptide, C-terminal domain kept; GST tag cut (HRV3C, pGEX-6P-1 SmaI); E. coli BL21
What does the source list for B1?
Km (purified protein [1]): 710 ± 36 µM; kcat (purified protein [1]): 9.5 ± 0.43 s⁻¹; Km (purified protein [2]): 480 ± 38 µM; kcat (purified protein [2]): 100 ± 4.54 s⁻¹
